{"source": "the supplement of paper PMC10567573", "parents": {"B1": {"name": "DVL3 (parent)", "chain": "HPDPAPFCADNPSELPPPMERTGG"}, "B2": {"name": "GNB5 (parent)", "chain": "DINSVRYYPSGDAFASGSDDATCR"}}, "data": [{"variants_of": "B1", "assay": "protein stability index of a GFP-peptide fusion (GPS, HEK-293T) (PSI 1-6); higher = more stable", "details": "c terminus: a fixed tail appended", "values": [{"variant": "HEDPAPFCADNPSELPPPMERTGG", "note": "[P2E]", "protein stability index": 4.46}, {"variant": "HFDPAPFCADNPSELPPPMERTGG", "note": "[P2F]", "protein stability index": 4.57}, {"variant": "HLDPAPFCADNPSELPPPMERTGG", "note": "[P2L]", "protein stability index": 1.93}, {"variant": "HWDPAPFCADNPSELPPPMERTGG", "note": "[P2W]", "protein stability index": 3.03}, {"variant": "HNDPAPFCADNPSELPPPMERTGG", "note": "[P2N]", "protein stability index": 4.74}, {"variant": "HSDPAPFCADNPSELPPPMERTGG", "note": "[P2S]", "protein stability index": 3.51}, {"variant": "HDDPAPFCADNPSELPPPMERTGG", "note": "[P2D]", "protein stability index": 5.12}, {"variant": "HGDPAPFCADNPSELPPPMERTGG", "note": "[P2G]", "protein stability index": 5.4}, {"variant": "HRDPAPFCADNPSELPPPMERTGG", "note": "[P2R]", "protein stability index": 4.33}, {"variant": "HKDPAPFCADNPSELPPPMERTGG", "note": "[P2K]", "protein stability index": 5.1}, {"variant": "HMDPAPFCADNPSELPPPMERTGG", "note": "[P2M]", "protein stability index": 2.04}, {"variant": "HHDPAPFCADNPSELPPPMERTGG", "note": "[P2H]", "protein stability index": 3.19}, {"variant": "HADPAPFCADNPSELPPPMERTGG", "note": "[P2A]", "protein stability index": 2.08}, {"variant": "HTDPAPFCADNPSELPPPMERTGG", "note": "[P2T]", "protein stability index": 2.27}, {"variant": "HQDPAPFCADNPSELPPPMERTGG", "note": "[P2Q]", "protein stability index": 1.54}, {"variant": "HYDPAPFCADNPSELPPPMERTGG", "note": "[P2Y]", "protein stability index": 3.84}, {"variant": "HCDPAPFCADNPSELPPPMERTGG", "note": "[P2C]", "protein stability index": 2.28}, {"variant": "HPDLAPFCADNPSELPPPMERTGG", "note": "[P4L]", "protein stability index": 4.8}, {"variant": "HPDYAPFCADNPSELPPPMERTGG", "note": "[P4Y]", "protein stability index": 4.58}, {"variant": "HPDQAPFCADNPSELPPPMERTGG", "note": "[P4Q]", "protein stability index": 5.3}, {"variant": "HPDHAPFCADNPSELPPPMERTGG", "note": "[P4H]", "protein stability index": 4.84}, {"variant": "HPDFAPFCADNPSELPPPMERTGG", "note": "[P4F]", "protein stability index": 4.71}, {"variant": "HPDNAPFCADNPSELPPPMERTGG", "note": "[P4N]", "protein stability index": 5.35}, {"variant": "HPDDAPFCADNPSELPPPMERTGG", "note": "[P4D]", "protein stability index": 5.64}, {"variant": "HPDGAPFCADNPSELPPPMERTGG", "note": "[P4G]", "protein stability index": 4.94}, {"variant": "HPDCAPFCADNPSELPPPMERTGG", "note": "[P4C]", "protein stability index": 4.85}, {"variant": "HPDSAPFCADNPSELPPPMERTGG", "note": "[P4S]", "protein stability index": 5.24}, {"variant": "HPDRAPFCADNPSELPPPMERTGG", "note": "[P4R]", "protein stability index": 4.78}, {"variant": "HPDEAPFCADNPSELPPPMERTGG", "note": "[P4E]", "protein stability index": 5.24}, {"variant": "HPDAAPFCADNPSELPPPMERTGG", "note": "[P4A]", "protein stability index": 4.6}, {"variant": "HPDWAPFCADNPSELPPPMERTGG", "note": "[P4W]", "protein stability index": 5.19}, {"variant": "HPDTAPFCADNPSELPPPMERTGG", "note": "[P4T]", "protein stability index": 4.9}, {"variant": "HPDVAPFCADNPSELPPPMERTGG", "note": "[P4V]", "protein stability index": 5.14}, {"variant": "HPDIAPFCADNPSELPPPMERTGG", "note": "[P4I]", "protein stability index": 4.99}, {"variant": "HPDMAPFCADNPSELPPPMERTGG", "note": "[P4M]", "protein stability index": 5.22}, {"variant": "HPDKAPFCADNPSELPPPMERTGG", "note": "[P4K]", "protein stability index": 5.4}, {"variant": "HPDPSPFCADNPSELPPPMERTGG", "note": "[A5S]", "protein stability index": 2.54}, {"variant": "HPDPEPFCADNPSELPPPMERTGG", "note": "[A5E]", "protein stability index": 3.91}, {"variant": "HPDPNPFCADNPSELPPPMERTGG", "note": "[A5N]", "protein stability index": 3.93}, {"variant": "HPDPMPFCADNPSELPPPMERTGG", "note": "[A5M]", "protein stability index": 1.82}, {"variant": "HPDPYPFCADNPSELPPPMERTGG", "note": "[A5Y]", "protein stability index": 3.11}, {"variant": "HPDPDPFCADNPSELPPPMERTGG", "note": "[A5D]", "protein stability index": 3.82}, {"variant": "HPDPVPFCADNPSELPPPMERTGG", "note": "[A5V]", "protein stability index": 3.62}, {"variant": "HPDPKPFCADNPSELPPPMERTGG", "note": "[A5K]", "protein stability index": 2.7}, {"variant": "HPDPWPFCADNPSELPPPMERTGG", "note": "[A5W]", "protein stability index": 2.41}, {"variant": "HPDPFPFCADNPSELPPPMERTGG", "note": "[A5F]", "protein stability index": 2.58}, {"variant": "HPDPRPFCADNPSELPPPMERTGG", "note": "[A5R]", "protein stability index": 2.29}, {"variant": "HPDPLPFCADNPSELPPPMERTGG", "note": "[A5L]", "protein stability index": 2.77}, {"variant": "HPDPQPFCADNPSELPPPMERTGG", "note": "[A5Q]", "protein stability index": 3.42}, {"variant": "HPDPGPFCADNPSELPPPMERTGG", "note": "[A5G]", "protein stability index": 2.87}, {"variant": "HPDPIPFCADNPSELPPPMERTGG", "note": "[A5I]", "protein stability index": 2.77}, {"variant": "HPDPCPFCADNPSELPPPMERTGG", "note": "[A5C]", "protein stability index": 2.75}, {"variant": "HPDPAGFCADNPSELPPPMERTGG", "note": "[P6G]", "protein stability index": 3.57}, {"variant": "HPDPADFCADNPSELPPPMERTGG", "note": "[P6D]", "protein stability index": 5.21}, {"variant": "HPDPACFCADNPSELPPPMERTGG", "note": "[P6C]", "protein stability index": 3.01}, {"variant": "HPDPAEFCADNPSELPPPMERTGG", "note": "[P6E]", "protein stability index": 4.91}, {"variant": "HPDPAFFCADNPSELPPPMERTGG", "note": "[P6F]", "protein stability index": 2.48}, {"variant": "HPDPAAFCADNPSELPPPMERTGG", "note": "[P6A]", "protein stability index": 2.69}, {"variant": "KPDPAPFCADNPSELPPPMERTGG", "note": "[H1K]", "protein stability index": 5.2}, {"variant": "RPDPAPFCADNPSELPPPMERTGG", "note": "[H1R]", "protein stability index": 4.98}, {"variant": "MPDPAPFCADNPSELPPPMERTGG", "note": "[H1M]", "protein stability index": 4.93}, {"variant": "EPDPAPFCADNPSELPPPMERTGG", "note": "[H1E]", "protein stability index": 5.45}, {"variant": "LPDPAPFCADNPSELPPPMERTGG", "note": "[H1L]", "protein stability index": 5.58}, {"variant": "HPVPAPFCADNPSELPPPMERTGG", "note": "[D3V]", "protein stability index": 3.39}, {"variant": "HPRPAPFCADNPSELPPPMERTGG", "note": "[D3R]", "protein stability index": 4.13}, {"variant": "HPMPAPFCADNPSELPPPMERTGG", "note": "[D3M]", "protein stability index": 3.42}, {"variant": "HPWPAPFCADNPSELPPPMERTGG", "note": "[D3W]", "protein stability index": 2.81}]}, {"variants_of": "B2", "assay": "protein stability index of a GFP-peptide fusion (GPS, HEK-293T) (PSI 1-6); higher = more stable", "details": "c terminus: a fixed tail appended", "values": [{"variant": "DINSVRYYPSGDAFASGSDDNTCR", "note": "[A21N]", "protein stability index": 4.16}, {"variant": "DINSVRYYPSGDAFASGSDDWTCR", "note": "[A21W]", "protein stability index": 2.79}, {"variant": "DINSVRYYPSGDAFASGSDDETCR", "note": "[A21E]", "protein stability index": 4.38}, {"variant": "DINSVRYYPSGDAFASGSDDITCR", "note": "[A21I]", "protein stability index": 3.44}, {"variant": "DINSVRYYPSGDAFASGSDDCTCR", "note": "[A21C]", "protein stability index": 3.82}, {"variant": "DINSVRYYPSGDAFASGSDDPTCR", "note": "[A21P]", "protein stability index": 4.16}, {"variant": "DINSVRYYPSGDAFASGSDDFTCR", "note": "[A21F]", "protein stability index": 3.3}, {"variant": "DINSVRYYPSGDAFASGSDDGTCR", "note": "[A21G]", "protein stability index": 3.63}, {"variant": "DINSVRYYPSGDAFASGSDDYTCR", "note": "[A21Y]", "protein stability index": 3.19}, {"variant": "DINSVRYYPSGDAFASGSDDKTCR", "note": "[A21K]", "protein stability index": 3.8}, {"variant": "DINSVRYYPSGDAFASGSDDTTCR", "note": "[A21T]", "protein stability index": 3.79}, {"variant": "DINSVRYYPSGDAFASGSDDDTCR", "note": "[A21D]", "protein stability index": 4.34}, {"variant": "DINSVRYYPSGDAFASGSDDVTCR", "note": "[A21V]", "protein stability index": 3.72}, {"variant": "DINSVRYYPSGDAFASGSDDRTCR", "note": "[A21R]", "protein stability index": 3.63}, {"variant": "DINSVRYYPSGDAFASGSDDQTCR", "note": "[A21Q]", "protein stability index": 3.98}, {"variant": "DINSVRYYPSGDAFASGSDDLTCR", "note": "[A21L]", "protein stability index": 3.82}, {"variant": "DINSVRYYPSGDAFASGSDDHTCR", "note": "[A21H]", "protein stability index": 3.62}, {"variant": "DINSVRYYPSGDAFASGSDDSTCR", "note": "[A21S]", "protein stability index": 3.91}, {"variant": "DINSVRYYPSGDAFASGSDDMTCR", "note": "[A21M]", "protein stability index": 3.44}, {"variant": "DINSVRYYPSGDAFASGVDDATCR", "note": "[S18V]", "protein stability index": 3.33}, {"variant": "DINSVRYYPSGDAFASGTDDATCR", "note": "[S18T]", "protein stability index": 4.06}, {"variant": "DINSVRYYPSGDAFASGYDDATCR", "note": "[S18Y]", "protein stability index": 3.43}, {"variant": "DINSVRYYPSGDAFASGRDDATCR", "note": "[S18R]", "protein stability index": 3.12}, {"variant": "DINSVRYYPSGDAFASGPDDATCR", "note": "[S18P]", "protein stability index": 3.74}, {"variant": "DINSVRYYPSGDAFASGQDDATCR", "note": "[S18Q]", "protein stability index": 3.81}, {"variant": "DINSVRYYPSGDAFASGWDDATCR", "note": "[S18W]", "protein stability index": 3.02}, {"variant": "DINSVRYYPSGDAFASGSDDATRR", "note": "[C23R]", "protein stability index": 3.92}]}]}
